From patent US20100158904A1 (GLENMARK PHARMACEUTICALS S A, published 2010) come the findings set out here.

By EC50 is commonly meant the concentration needed to bring the measured effect to its halfway point.

The target of assay [1] is human α2β1 integrin (VLA-2) expressed on human cancer cell lines (human) (UniProt P17301). In words: flow cytometry, hIgG4-FITC control on HT-1080 cells. (A flow cytometer gives signals particle by particle.)
The target is the same in assay [2]. In words: flow cytometry, 10 µg/mL hIgG4-FITC control on AsPC-1 cells.
For assay [3] the target is unchanged. In words: flow cytometry, 10 µg/mL hIgG4-FITC control on HPAF-II cells.
Assay [4] shares this target. In words: flow cytometry, 10 µg/mL hIgG4-FITC control on SK-BR-3 cells.
Assay [5] deals with T1, human α2β1 integrin (VLA-2) expressed on human cancer cell lines (human, UniProt P17301 30-1181; P05556 21-798).
T1 construct: also called α2 integrin; CD49b (α2 subunit)
T1 sequence (P17301 30-1181 E534K limits assumed, chain 1 of 2): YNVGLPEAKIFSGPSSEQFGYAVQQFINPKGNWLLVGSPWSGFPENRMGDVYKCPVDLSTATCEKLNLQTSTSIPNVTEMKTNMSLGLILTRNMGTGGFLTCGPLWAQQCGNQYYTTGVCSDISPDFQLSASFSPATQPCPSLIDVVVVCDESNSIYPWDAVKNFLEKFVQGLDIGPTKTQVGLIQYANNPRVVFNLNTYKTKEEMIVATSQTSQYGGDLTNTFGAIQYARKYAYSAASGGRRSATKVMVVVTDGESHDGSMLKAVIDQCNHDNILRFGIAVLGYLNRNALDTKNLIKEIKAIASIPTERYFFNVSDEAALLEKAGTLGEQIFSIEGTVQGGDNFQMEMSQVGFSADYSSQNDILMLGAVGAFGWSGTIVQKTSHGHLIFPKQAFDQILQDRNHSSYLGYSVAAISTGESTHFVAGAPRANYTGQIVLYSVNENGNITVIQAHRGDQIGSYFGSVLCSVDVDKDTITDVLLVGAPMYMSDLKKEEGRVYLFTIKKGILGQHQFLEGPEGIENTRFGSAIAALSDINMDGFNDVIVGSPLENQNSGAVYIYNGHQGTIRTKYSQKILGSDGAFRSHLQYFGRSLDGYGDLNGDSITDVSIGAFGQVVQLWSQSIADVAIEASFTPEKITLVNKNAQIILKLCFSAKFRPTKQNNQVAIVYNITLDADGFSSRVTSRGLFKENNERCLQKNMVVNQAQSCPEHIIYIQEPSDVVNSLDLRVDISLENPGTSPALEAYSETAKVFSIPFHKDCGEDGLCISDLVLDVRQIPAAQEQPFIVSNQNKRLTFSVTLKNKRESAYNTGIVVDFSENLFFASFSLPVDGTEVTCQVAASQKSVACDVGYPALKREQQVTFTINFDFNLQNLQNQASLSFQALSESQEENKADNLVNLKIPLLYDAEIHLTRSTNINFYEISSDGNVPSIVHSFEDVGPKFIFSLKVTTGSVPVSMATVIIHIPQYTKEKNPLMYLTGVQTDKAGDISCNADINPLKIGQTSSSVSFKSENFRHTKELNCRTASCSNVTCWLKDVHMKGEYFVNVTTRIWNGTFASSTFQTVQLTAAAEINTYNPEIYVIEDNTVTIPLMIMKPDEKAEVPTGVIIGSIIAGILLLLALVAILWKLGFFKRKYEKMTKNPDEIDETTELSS
T1 sequence (P05556 21-798 limits assumed, chain 2 of 2): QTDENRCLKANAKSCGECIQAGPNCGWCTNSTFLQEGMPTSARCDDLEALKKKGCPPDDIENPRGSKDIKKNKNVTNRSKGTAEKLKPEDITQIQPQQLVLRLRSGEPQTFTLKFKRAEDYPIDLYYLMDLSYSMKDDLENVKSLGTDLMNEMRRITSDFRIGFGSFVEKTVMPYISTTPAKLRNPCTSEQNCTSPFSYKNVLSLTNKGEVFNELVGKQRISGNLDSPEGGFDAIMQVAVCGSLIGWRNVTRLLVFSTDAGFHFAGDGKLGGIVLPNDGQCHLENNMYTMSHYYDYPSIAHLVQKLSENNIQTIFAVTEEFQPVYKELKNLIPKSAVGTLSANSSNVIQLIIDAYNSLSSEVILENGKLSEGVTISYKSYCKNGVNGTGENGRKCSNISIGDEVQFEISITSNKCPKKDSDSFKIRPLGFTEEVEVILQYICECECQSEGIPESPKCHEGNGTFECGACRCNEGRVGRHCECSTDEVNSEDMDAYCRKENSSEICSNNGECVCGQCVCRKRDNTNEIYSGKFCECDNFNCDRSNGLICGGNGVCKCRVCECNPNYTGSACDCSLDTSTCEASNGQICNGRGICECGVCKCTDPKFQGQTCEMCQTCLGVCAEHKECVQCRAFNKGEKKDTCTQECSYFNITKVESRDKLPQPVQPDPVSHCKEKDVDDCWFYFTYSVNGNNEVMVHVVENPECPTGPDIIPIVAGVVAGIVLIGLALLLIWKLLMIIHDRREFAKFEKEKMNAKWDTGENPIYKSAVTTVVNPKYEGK
The experiment in a line: inhibition of adhesion of HT-1080 cells to human collagen type I, mean of 3. As for the experimental part:
(§1) Ninety six well ELISA plates (black cliniplate, Thermo Firsher scientific, cat n^o 9502867) were coated with 100 μl of human collagen type I (SIGMA, cat n^o C7774) at 50 μg/mL in Acetic Acid 0.02N or in PBS. Collagen was either diluted in acetic acid and incubated for 1 hour at 37° C. or diluted in PBS and incubated overnight at 4° C. Plates were blocked with 150 μl of PBS supplemented with 0.1% BSA or 1% BSA (Sigma, cat n^o A3059). Cells were first labelled with CFSE (Invitrogen cat n^o C34554) into serum free DMEM medium (PAA, cat n^o E15-005). Three μl of a 15 mM CFSE solution was added to 5 ml cells at a concentration between 1×10⁶ cells/ml to 0.6×10⁶ cells/ml. Cells were incubated with CFSE for 10 minutes at 37° C. and CFSE excess was removed by centrifugation of the cells at 900 rpm for 3 min. CFSE-labelled cells were resuspended at a concentration between 0.6×10⁶ to 1×10⁶ cells/ml in DMEM supplemented with 0.1% BSA. […] Wells in the plates were filled with PBS and fluorescence with excitation at 498 nm and emission at 525 nm was measured using Synerg HT2 fluorometer. Data were analyzed using PRISM software. Activity of the anti-VLA-2 antibody was expressed as EC₅₀ which is defined as the concentration of antibody that provokes a response halfway between the baseline and the maximum response. […]

The target of assay [6] is T1, human α2β1 integrin (VLA-2) expressed …. In words: inhibition of cell adhesion to human collagen type I; ratio between two cell lines. As to the method: as §1
Assay [7] has the same target. In words: inhibition of adhesion of AsPC-1 cells to human collagen type I, mean of 2 experiments. As to the method: as §1
For assay [8] the target is unchanged. In words: inhibition of adhesion of HPAF-II cells to human collagen type I, mean of 2 experiments. As for the experimental part:
as §1

The target is the same in assay [9]. The experiment in a line: inhibition of adhesion of CFSE-labelled AsPC-1 cells to human collagen type I, experiment I. As to the method: as §1
Assay [10] shares this target. In words: inhibition of adhesion of CFSE-labelled AsPC-1 cells to human collagen type I, experiment II. As for the experimental part:
as §1

The target is the same in assay [11]. In words: inhibition of adhesion of CFSE-labelled HPAF-II cells to human collagen type I, experiment I. As to the method: as §1
Assay [12] shares this target. The experiment in a line: inhibition of adhesion of CFSE-labelled HPAF-II cells to human collagen type I, experiment II. As for the experimental part:
as §1

The target is the same in assay [13]. In words: inhibition of adhesion of SK-BR-3 cells to human collagen type I, mean of 2 experiments. As to the method: as §1
Assay [14] has the same target. In words: inhibition of adhesion of CFSE-labelled SK-BR-3 cells to human collagen type I, experiment I. As for the experimental part: as §1
Assay [15] shares this target. The experiment in a line: inhibition of adhesion of CFSE-labelled SK-BR-3 cells to human collagen type I, experiment II. As for the experimental part: as §1

Chain of human α2β1 integrin (VLA-2) expressed on human cancer cell lines (human) (P17301 30-1181 E534K limits assumed, chain 1 of 2): as the sequence (P17301 30-1181 E534K limits assumed, chain 1 of 2) above
Chain of human α2β1 integrin (VLA-2) expressed on human cancer cell lines (human) (chain, as listed by the source limits assumed, chain 2 of 2): as the sequence (P05556 21-798 limits assumed, chain 2 of 2) above

As for hIgG4 isotype control antibody, the MFI in assay [1] was determined as 4.9; in [2], 6.8; in assay [3], 14.9; in assay [4], 3.4.

B1: TMC-2206, mouse anti-human α2 integrin antibody (BHA2.1 hybridoma) (antibody, V domains shown)
VH: QVQLKESGPGLVAPSQSLSITCTVSGFSLTNYGIHWVRQPPGKGLEWLGVIWARGFTNYNSALMSRLIITKDNSQSQVFLKMNSLQPDDSATYFCARANDGVYYAMDYWGQGTSVTVSS
VL: QFVLTQSPAFLSASPGEKVTMTCSANSSVNYIHWYQQKSGTSPKKWIYDTSKLASGVPVRFSGSGSGTSYSLTISSMETEDAATYYCQQWTTNPLTFGAGTRVELK
notes: Murine monoclonal antibody (Glenmark/Millipore, cat. MAB1998); also called MAB1998
As for B1, the EC50 in assay [5] was 0.097 µg/mL; in [7], 0.08 µg/mL; in [8], 0.29 µg/mL; in assay [9], 0.074 µg/mL; in assay [10], 0.087 µg/mL; in [11] it was 0.326 µg/mL. The EC50 in [12] came out at 0.253 µg/mL. Moreover, the “fold EC50 on HPAF-II cells against EC50 on AsPC-1 cells” value in [6] was 3.6 fold.

B2: GBR500, humanized anti-human α2 integrin antibody (antibody, human IgG4, kappa, V domains shown)
VH: QVQLQESGPGLVKPSETLSLTCTVSGFSLTNYGIHWIRQPPGKGLEWLGVIWARGFTNYNSALMSRLTISKDNSKNQVSLKLSSVTAADTAVYYCARANDGVYYAMDYWGQGTLVTVSS
VL: DFVMTQSPAFLSVTPGEKVTITCSAQSSVNYIHWYQQKPDQAPKKLIYDTSKLASGVPSRFSGSGSGTDYTFTISSLEAEDAATYYCQQWTTNPLTFGQGTKVEIKR
notes: Its isotype-matched control is a humanized IgG4; also called GBR500-FITC; Biotin-GBR500
Consider B2, for which the concentration giving a half-maximal response (EC50) was found to be 0.076 µg/mL in assay [5]; 0.041 µg/mL in assay [7]; 0.163 µg/mL in [8]; 0.036 µg/mL in assay [13]; 0.047 µg/mL in [9]; 0.036 µg/mL in assay [10]. The half-maximal effective concentration (EC50) in assay [11] turned out to be 0.224 µg/mL; in assay [14], 0.039 µg/mL; in [12], 0.103 µg/mL; in [15] it was 0.032 µg/mL. For the same molecule, the “fold EC50 on HPAF-II cells against EC50 on AsPC-1 cells” value in [6] came to 3.9 fold.
